Experiment: soluble on expression in E. coli; label from the status in PepcDB or PDB records

Sequence | soluble on expression in E. coli
MMSDQENENEHAKAFLGLAKCEEEVDAIEREVELYRLNKMKPVYEKRDAYIDEIAEFWKIVLSQHVSFANYIRASDFKYIDTIDKIKVEWLALESEMYDTRDFSITFHFHGIEGDFKEQQVTKVFQIKKGKDDQEDGILTSEPVPIEWPQSYDSINPDLIKDKRSPEGKKKYRQGMKTIFGWFRWTGLKPGKEFPHGDSLASLFSEEIYPFCVKYYAEAQRDLEDEEGESGLSADGDSEDDDGSLGEVDLPLSDEEPSSKKRKV | soluble
MKVIEVTHPIQSKQYITEDVAMAFGFFDGMHKGHDKVFDILNEIAEARSLKKAVMTFDPHPSVVLNPKRKRTTYLTPLSDKIEKISQHDIDYCIVVNFSSRFANVSVEDFVENYIIKNNVKEVIAGFDFTFGKFGKGNMTVLQEYDAFNTTIVSKQEIENEKISTTSIRQDLINGELQKANDALGYIYSIKGTVVQGEKRGRTIGFPTANIQPSDDYLLPRKGVYAVSIEIGTENKLYRGVANIGVKPTFHDPNKAEVVIEVNIFDFEDNIYGERVTVNWHHFLRPEIKFDGIDPLVKQMNDDKSRAKYLLAVDFGDEVAYNI | not soluble
MKRARSANIPGAILHSLAELQDGLNAMIDPSWRAVRSLDNWALAITMESTELLDSYPWKWWKNLNATPDLANVRIELVDIFHFSLSGAMQMRSTPDDEIPAASLKPLKEVMTTFLPAKECTSDPYGFVFFPLTDTQNAIASFRNIIQLANAYRFDVIIECIIYAAEDLGFNLVAYYIAKHTLNCIRQLSGYKDGSYVKVNNGVEDNSLLHNCIKDVSLDEVLDADKYVQAWNSIMANVYEAFQIKESDRKDAERWFALAKENRLAIKA | soluble
MGSDKIHHHHHHMNIGGGKFLLGRISNNPTSGIVGLANVGKSTFFQAITNSKLGNPANYPFATIDAECAKVNIPSVPLSNLLRIYQSAKCVPGTLTIYDIAGLTRGASQGHGLGNKFLNDIRHVEGIFQVVRGFLKEDITHIEGNVDPVRDLSVVQDELILKDLEFLENIRERLSKKMRMVSKNSKEHQEMKIETELLDALEEHLFNGKKIRHFKDHWNLDEVKILNKHNFLTSKPTLILLNVSPQDYVRNENKFVRNIIEWINEFSPGDKFLLFSAEFESQLMECKGIASEYFDKIKEDTNVSDQQLVSAIPQIILEMRKLLNLISFFTCGPQEVHQWNIREGTTAQEAAGVIHSDLRETFISADVIKYDDLKKMEPPLNESLLKSKGLIKRAGKQYIMQDNDIALFKAAGGKIKK | not soluble
MGGSFGKKGASSATAAQVPLATETTPGLMSPSEKLKLSTLTTSIATSDFYASYDFMMHSIGLTSANNISLLSTGNISLQNILSEGNHFGVQPIVSSTTANASFLAGMLMAIFPKESELEVTVYFKTPSAFNPAQLTVIGSTSIGLGISDRSGLIIENGNAFGGIVKASAATETGSTYALSTSTWYICKFKMLTDDRFKVTLYSDSGTQLYSYTSTAAMFRADNATAHIGFKTQCKTATAGISLISIDLIEFKAKVSATRAKV | soluble
GPLGSNIEQYIHDLDSNSFELDLQFSEDEKRLLLEKQAGGNPWHQFVENNLILKMGPVDKRKGLFARRRQLLLTEGPHLYYVDPVNKVLKGEIPWSQELRPEAKNFKTFFVHTPNRTYYLMDPSGNAHKWCRKIQEVWRQRYQSHPDAAVQ | soluble
MAYHADSADLETKEILTWEGFGIANRELAQQIVDSNYTPDIIVAVARGGLVPAGALSYSMGIKLSDAINVEFYTDVNETLPDPVLLEPLLDTNSIRGKKVLVVDDVADSGRTLDLVLKLLENHGAEVRSAVIYAKSRSIVAPNYIWKRTDEWIVFPWSAEPPVTKA | not soluble
MTPDPLYMRRAIELAQNAEGFTSPNPLVGAVLVAHGRIIGEGYHHCAGMPHAEVIAINSVRDRALLRESTLYVSLEPCSHYGKTPPCAELILREGIPHVVVAMLDPFPSVSGRGIKMLRDAGVSVQVGLLAEEAEELNRHFLTAQRQHRPYVTLKWAESSDGFIDALRDDASTPPVRLSTPLTTRFVHHRRMIHDAILVGFRTALLDNPSLTVRHWYGRNPLRVVTDRHLALPRHLTLFDGSVPTLVFTEKEQPSGYPSAVSFVRIDPSRPPVEQMLAELHARGIQSLLVEGGACILRSFIDSGLYDDVRIEHSTIILNEGVRAPHLPSY | not soluble
MQNRKFLTHHEINLLLQSVKQKSCSSRDVCMILLAYFHGLRVSELLSLQLSDLELTTEKIYIQRIKNGFSTVHPLQKEEVIAITNWLNERNSLNVKHFNDNPWLFVSRTGKPLSRQRFYNI | not soluble
MKAFNYYAPTEIIFGCGRVQEIGSITAQYGKKALLVTVPEFPEVKELYEKVKKSLRENGVEVVHFDGVIPNPTTDVVTEGANMAKAAGVDVVIGLGGGSSIDTAKAIAVEATHPGTAWDYNCHTPGPTSATLPIIAIGTTAGTGSQCTQCAVITKTSEKDKSAIWHKNIFPKVAIVDPEVTVTMPKSVTAQTGFDAFAHNFEAYLSVKTSPLVEMMAIEAIKMIKEYLPKALENPNDIEARSKMSLADTLGGLTNSNAGVTLPHGLGMQVGGHAPHVSHGQALAIIYPQFTRYTYAWAIEKFAKVGRIFNPALNELSDEEAAKEACVAIDDFLKKIGLWIGFKDVNVTKEQIREIADDGQVLGDYLNNPRVATIDEMYELLMNCYERKE | soluble
MNRQELITEALKARDMAYAPYSKFQVGAALLTKDGKVYRGCNIENAAYSMCNCAERTALFKAVSEGDTEFQMLAVAADTPGPVSPCGACRQVISELCTKDVIVVLTNLQGQIKEMTVEELLPGAFSSEDLHDERKL | soluble
MSLSEELSFSAMVKAELALLTPELPCCRRMELAGLVRALGRLELSGRGRFALTLSTDSAPVSRKVIRLLKSVSPVRYEVMVMRRRKLRKNLVYRVHIPHQPGVAELLQLAGFIDEAGRPADWVEPPELANDHCRRAFLRGTFLGSGWVAGPEKQHHLEITTTATEAADALGQMLFRGGIAARMVARRESLVLYIKEADQIIRFLGLVGAHQALLRYEEVRVIKEMKNQVNRQVNAEVANMTKQADAAARQVEAIKRLEAAGALERVSPPLRELAGLRLAYPDASLKELGELCRPPVSKSGAAHRMRQLMALAESLEEGHHHHHH | soluble
MRLGVNVDHVATVRQARRTFEPSPVFAALIAQQAGADQITLHLREDRRHIQDRDLELIKELITIPVNLEMAPTEEMREIALRVKPDRITLVPERREEITTEGGLDVVSLKEKLKEYLKPIKEAGIEVSLFIEAQKEQIDASVEVGADAIEIHTGRYANLWNEHRFEEAKEELNRIKEAAIYAKEKGLKVYAGHGLTYHNVKDFVRELKGYVEELNIGHSIVANAVIFGFERAVKEMLNLIKT | soluble
MYEYSFNPNIDHEPGSVESQQSTIYSDSDDSDDSFLDDEVIPPKEQAMRKIEFALADIKRQMDNKEKSLTLRISTSKSHFCLRYTAKRKGKLDRDLHCLHQVYDLLENDKRSTKRELYYEHKAVYGNQKYLDSSIKSICELLNESRANLNILSCGRGIIRGAITFLVENVGVIDARVQEVLITDALLFSNIISEADFILVVEKDTTFQKLMDENFQAMFPRGILATSKGYPDIATRNVLKMLSEKRKFPIYGLFDADPHGIEIYLTYKYGPTKEFAEGRGAFVPTIEWIGLFPTDFHRFTIDQSQCLPLVRTDFVKIEKMIPRSIQLGEIVVTRELDWMIQNKFKMELESINMCGQEYMARFLIAPRVMSIEKEIPIQPETIINEYHEDSQCSLSTDDDREAKDDDYIDSDAEEKFQNMIDNDSD | not soluble
MHIKSAIIVVSDRISTGTRENKALPLLQRLMSDELQDYSYELISEVVVPEGYDTVVEAIATALKQGARFIITAGGTGIRAKNQTPEATASFIHTRCEGLEQQILIHGSTHTHLAGLSRGIVGVTGRDDHAALIVNAPSSSGGITDTWAVISPVIPNIFEGLDAS | soluble
MGSDKIHHHHHHMLSHEDNETLVRVGPGTPTGQFMRLYWLPFLPSSDLTVDGQPQRVRLLGEDLIAFRDSEGRVGLVDHVCPHRGAPLVFGRNENCGLRCVYHGWQFGVDGQVIDTPAEPAESRLKDKVRIRSYPCRERNGIVWAYMGEADANALPPLPNLEWNMVPLENVHFSFRVQECNWLQAVEGEIDSAHAPILHGRIDSQGAINEWTAKRDLRPVFECQRREFGISIASRRVLDDSHHYWRVNQFLFPFYTLVPPQSKYPELSGHAWVPVDDENTLCLMFSYTPAAPLYEKTRKLFEDGHAGRETGHASAHAFAPRPVTQPYAKYWTRFNLESAFQFDYDAQTKTWFSGLPGLWVQDAACQSGVAPIYDRRKENLGISDTGVAMTRRLLLENVRKLASERVSPVRVDDPDLWMVRAVSLTLPAGAPWQSDGAEHMRARLGADFGYTP | not soluble
MSENNKIILYQDDNEIIRVSVRFSDEDLWLTQNQLAEIYCTTQQNISQHVDNIYKDGELFTEATNKKFLLVRQEGNRQVRRNIDHYNLDMVIALGYRVQSQVATRFRRWATQRLHEYIQKGFAMDDERLKQGGNRYFRELLQRIRDIRSSERNFYQQVTDIYATATDYDPRDEMTKMFFATVQNKLHYAVHENTAAEVIYNRVDNEKPFVGMTNFKGNYVTKDDVKIAKNYLSEIELQRLNLLVSGFLDFAEFQALEMNPMTMKDWIEALDNQIIAHKRKVLIDKGRISHKQAIEKAEKEFAIYRKREMDLLESDFDKEIKRLKDKNDNNPN | not soluble
MHKNGNNGPVIDTKWHYLGPDSEKYGPYMSKDMLFWLQAGYFNDGLQLKTENEPNYHTLGEWSQLLGTHPFSMPVHSLDATIAQMNSMRPHGAMMMVPPGLQNQFQPPMPMRFPPFLPMPLLHQMNQNGPPMGAQMHSQPPSEPIDAGSLSHTPDSENETRLNEQTLQQPPSWLIALGLAGHGRKPHHHQQILAHQHIPQMQHANVATDQVVMKSVECQTEPVEISKEQASRVLSELLGQMVIIN | not soluble
MGSDKIHHHHHHMKKATDKNPTTTSKPNTITPLFTTNYNVYINHTDAGGIVYHANHLVFFENCRRDWFTQLGLNGYFLESNDGQIQHFVVTQADLQYKHAILLDEVINVRIDNVEIKPASIVFYQSIYRQQSQDNTANNAKAVLLSSTKIVVACVQNQITPDSIDNNASNNTAPMRPVRVPQKLRDAIERAIAEHIVEIL | not soluble
MQIKLPKPFFFEEGKRAVLLLHGFTGNSSDVRQLGRFLQKKGYTSYAPQYEGHAAPPDEILKSSPFVWFKDALDGYDYLVEQGYDEIVVAGLSLGGDFALKLSLNRDVKGIVTMCAPMGGKTEGAIYEGFLEYARNFKKYEGKDQETIDNEMDHFKPTETLKELSEALDTIKEQVDEVLDPILVIQAENDNMIDPQSANYIYDHVDSDDKNIKWYSESGHVITIDKEKEQVFEDIYQFLESLDWSE | not soluble
MSLSSCEVLTSLGERMILIRGLTRVITFDDQERELEDADILIDGPKIVAVGKDLSDRSVSRTIDGRGMIALPGLINSHQHLYEGAMRAIPQLERVTMASWLEGVLTRSAGWWRDGKFGPDVIREVARAVLLESLLGGITTVADQHLFFPGATADSYIDATIEAATDLGIRFHAARSSMTLGKSEGGFCDDLFVEPVDRVVQHCLGLIDQYHEPEPFGMVRIALGPCGVPYDKPELFEAFAQMAADYDVRLHTHFYEPLDAGMSDHLYGMTPWRFLEKHGWASDRVWLAHAVVPPREEIPEFADAGVAIAHLIAPDLRMGWGLAPIREYLDAGITVGFGTTGSASNDGGNLLGDLRLAALAHRPADPNEPEKWLSARELLRMATRGSAECLGRPDLGVLEEGRAADIACWRLDGVDRVGVHDPAIGLIMTGLSDRASLVVVNGQVLVENERPVLADLERIVANTTALIPKNLEGHHHHHH | not soluble

From the DeepSol protein solubility set
